Laboratory results reported in PMC9482650, “Quantitative fragmentomics allow affinity mapping of interactomes” (Nature Communications, 2022).

T1: HTRA4, P83105
T1 sequence (P83105 378-476, limits assumed, looked up): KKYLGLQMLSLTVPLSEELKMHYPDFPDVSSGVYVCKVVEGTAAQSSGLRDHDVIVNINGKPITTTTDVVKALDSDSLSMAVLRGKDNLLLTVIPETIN

T2: LIN7B, Q9HAP6
T2 sequence (Q9HAP6 88-185, limits assumed, looked up): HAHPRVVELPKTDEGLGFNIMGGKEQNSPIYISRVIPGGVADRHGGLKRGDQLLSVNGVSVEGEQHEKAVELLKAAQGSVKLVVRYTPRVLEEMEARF

T3: SNTG2, Q9NY99
T3 sequence (Q9NY99 68-166, limits assumed, looked up): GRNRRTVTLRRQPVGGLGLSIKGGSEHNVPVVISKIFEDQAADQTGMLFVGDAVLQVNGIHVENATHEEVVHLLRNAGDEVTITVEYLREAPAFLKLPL

T4: RAPGEF6, Q8TEU7
T4 sequence (Q8TEU7 525-625, limits assumed, looked up): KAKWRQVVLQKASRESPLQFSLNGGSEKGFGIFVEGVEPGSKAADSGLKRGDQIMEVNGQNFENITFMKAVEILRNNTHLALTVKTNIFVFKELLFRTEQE

T5: NHERF3_1, Q5T2W1
T5 sequence (Q5T2W1 4-100, limits assumed, looked up): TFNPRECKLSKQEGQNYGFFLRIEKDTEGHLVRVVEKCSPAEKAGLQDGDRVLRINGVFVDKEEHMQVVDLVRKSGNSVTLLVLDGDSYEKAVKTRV

T6: DFNB31_1, Q9P202
T6 sequence (Q9P202 135-233, limits assumed, looked up): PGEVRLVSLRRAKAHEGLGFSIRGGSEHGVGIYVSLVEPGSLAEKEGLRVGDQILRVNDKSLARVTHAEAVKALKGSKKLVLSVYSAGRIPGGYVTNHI

T7: MPDZ_10, O75970
T7 sequence (O75970 1624-1722, limits assumed, looked up): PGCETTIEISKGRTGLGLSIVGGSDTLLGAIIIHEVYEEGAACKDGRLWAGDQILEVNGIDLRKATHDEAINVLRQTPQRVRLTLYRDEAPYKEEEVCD

T8: TIAM2, Q8IVF5
T8 sequence (Q8IVF5 885-986, limits assumed, looked up): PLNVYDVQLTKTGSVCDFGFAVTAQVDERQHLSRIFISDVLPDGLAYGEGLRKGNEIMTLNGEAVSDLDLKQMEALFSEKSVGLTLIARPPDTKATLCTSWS

T9: SNTG1, Q9NSN8
T9 sequence (Q9NSN8 52-150, limits assumed, looked up): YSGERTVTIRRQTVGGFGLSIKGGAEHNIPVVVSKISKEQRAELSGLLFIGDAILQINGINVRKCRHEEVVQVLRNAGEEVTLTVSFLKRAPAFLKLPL

T10: DLG3_2, Q92796
T10 sequence (Q92796 221-321, limits assumed, looked up): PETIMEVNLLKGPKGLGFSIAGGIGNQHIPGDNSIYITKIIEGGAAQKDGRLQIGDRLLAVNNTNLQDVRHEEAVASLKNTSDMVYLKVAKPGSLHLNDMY

T11: SNTA1, Q13424
T11 sequence (Q13424 82-180, limits assumed, looked up): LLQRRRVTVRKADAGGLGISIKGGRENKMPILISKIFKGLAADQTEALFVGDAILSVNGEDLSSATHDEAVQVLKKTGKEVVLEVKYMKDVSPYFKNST


Legend:
Test in all cases: holdup assay
Parameters in all cases: key: below the threshold = too weak to quantify, mostly under pKd 3.1 to 4
Details in all cases: plain residues with an end cap or a label only (N-terminal biotin on a linker: ado-ado)
IL16_1, Q14005 = molecular target: IL16_1, Q14005
DLG4_3, P78352 = molecular target: DLG4_3, P78352
LIMK2, P53671 = molecular target: LIMK2, P53671
HTRA4, P83105 = molecular target: T1, HTRA4, P83105
LIN7B, Q9HAP6 = molecular target: T2, LIN7B, Q9HAP6
SNTG2, Q9NY99 = molecular target: T3, SNTG2, Q9NY99
RAPGEF6, Q8TEU7 = molecular target: T4, RAPGEF6, Q8TEU7
IL16_4, Q14005 = molecular target: IL16_4, Q14005
FRMPD2_2, Q68DX3 = molecular target: FRMPD2_2, Q68DX3
GRIP2_5, Q9C0E4 = molecular target: GRIP2_5, Q9C0E4
NHERF3_1, Q5T2W1 = molecular target: T5, NHERF3_1, Q5T2W1
DLG5_1, Q8TDM6 = molecular target: DLG5_1, Q8TDM6
NOS1, P29475 = molecular target: NOS1, P29475
DFNB31_1, Q9P202 = molecular target: T6, DFNB31_1, Q9P202
MPDZ_10, O75970 = molecular target: T7, MPDZ_10, O75970
PARD3_3, Q8TEW0 = molecular target: PARD3_3, Q8TEW0
TIAM2, Q8IVF5 = molecular target: T8, TIAM2, Q8IVF5
Inadl_8, Q8NI35 = molecular target: Inadl_8, Q8NI35
SNTG1, Q9NSN8 = molecular target: T9, SNTG1, Q9NSN8
DLG3_2, Q92796 = molecular target: T10, DLG3_2, Q92796
PDLIM1, O00151 = molecular target: PDLIM1, O00151
SNTA1, Q13424 = molecular target: T11, SNTA1, Q13424
SCRIB_1, Q14160 = molecular target: SCRIB_1, Q14160
CASK, O14936 = molecular target: CASK, O14936
GORASP2, Q9H8Y8 = molecular target: GORASP2, Q9H8Y8
GOPC, Q9HD26 = molecular target: GOPC, Q9HD26

Chain of DLG5_1, Q8TDM6 (Q8TDM6 617-713): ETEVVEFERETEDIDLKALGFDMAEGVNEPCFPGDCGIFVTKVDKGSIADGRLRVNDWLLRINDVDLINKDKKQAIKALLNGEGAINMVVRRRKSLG
Chain of PARD3_3, Q8TEW0 (Q8TEW0 582-685): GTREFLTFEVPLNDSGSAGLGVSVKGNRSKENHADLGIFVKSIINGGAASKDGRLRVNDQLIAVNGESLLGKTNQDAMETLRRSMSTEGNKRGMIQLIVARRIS
Chain of Inadl_8, Q8NI35 (Q8NI35 1425-1530): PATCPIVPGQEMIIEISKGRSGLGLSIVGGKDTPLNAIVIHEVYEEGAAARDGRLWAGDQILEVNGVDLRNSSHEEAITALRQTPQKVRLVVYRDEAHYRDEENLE
Chain of IL16_1, Q14005 (Q14005 210-306): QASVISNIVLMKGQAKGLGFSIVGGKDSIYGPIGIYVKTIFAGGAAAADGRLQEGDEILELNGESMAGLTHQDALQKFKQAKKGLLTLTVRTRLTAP
Chain of LIMK2, P53671 (P53671 143-248): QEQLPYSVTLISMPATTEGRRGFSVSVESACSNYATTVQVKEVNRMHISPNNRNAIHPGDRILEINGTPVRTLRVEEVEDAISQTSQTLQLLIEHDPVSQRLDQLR
Chain of FRMPD2_2, Q68DX3 (Q68DX3 944-1038): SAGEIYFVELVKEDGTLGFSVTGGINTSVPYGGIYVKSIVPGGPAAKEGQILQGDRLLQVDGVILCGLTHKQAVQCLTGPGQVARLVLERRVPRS
Chain of DLG4_3, P78352 (P78352 306-403): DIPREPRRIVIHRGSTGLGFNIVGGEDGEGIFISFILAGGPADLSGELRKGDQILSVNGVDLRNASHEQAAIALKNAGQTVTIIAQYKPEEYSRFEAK
Chain of CASK, O14936 (O14936 487-570): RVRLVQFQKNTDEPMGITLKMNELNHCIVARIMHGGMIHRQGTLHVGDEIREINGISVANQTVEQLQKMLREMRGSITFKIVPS
Chain of NOS1, P29475 (P29475 9-101): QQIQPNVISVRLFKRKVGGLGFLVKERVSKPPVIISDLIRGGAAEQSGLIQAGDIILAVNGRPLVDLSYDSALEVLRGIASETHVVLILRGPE
Chain of PDLIM1, O00151 (O00151 1-87): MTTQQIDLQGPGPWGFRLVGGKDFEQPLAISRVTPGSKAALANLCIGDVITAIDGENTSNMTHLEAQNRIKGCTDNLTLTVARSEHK
Chain of SCRIB_1, Q14160 (Q14160 718-814): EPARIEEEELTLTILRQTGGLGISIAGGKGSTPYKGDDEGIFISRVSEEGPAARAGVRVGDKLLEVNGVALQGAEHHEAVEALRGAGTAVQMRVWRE
Chain of IL16_4, Q14005 (Q14005 1229-1329): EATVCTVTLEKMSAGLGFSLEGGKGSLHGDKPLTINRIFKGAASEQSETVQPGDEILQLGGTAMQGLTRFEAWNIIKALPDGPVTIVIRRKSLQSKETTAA
Chain of GRIP2_5, Q9C0E4 (Q9C0E4 544-642): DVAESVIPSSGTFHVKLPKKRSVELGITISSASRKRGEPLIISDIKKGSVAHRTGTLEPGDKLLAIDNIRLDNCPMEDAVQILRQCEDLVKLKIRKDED

Binder | pKd (IL16_1, Q14005) | pKd (DLG4_3, P78352) | pKd (LIMK2, P53671) | pKd (HTRA4, P83105) | pKd (LIN7B, Q9HAP6) | pKd (SNTG2, Q9NY99) | pKd (RAPGEF6, Q8TEU7) | pKd (IL16_4, Q14005) | pKd (FRMPD2_2, Q68DX3) | pKd (GRIP2_5, Q9C0E4) | pKd (NHERF3_1, Q5T2W1) | pKd (DLG5_1, Q8TDM6) | pKd (NOS1, P29475) | pKd (DFNB31_1, Q9P202) | pKd (MPDZ_10, O75970) | pKd (PARD3_3, Q8TEW0) | pKd (TIAM2, Q8IVF5) | pKd (Inadl_8, Q8NI35) | pKd (SNTG1, Q9NSN8) | pKd (DLG3_2, Q92796) | other results
KKAPTNEFYA [SDC4, P31431] | below the threshold | below the threshold | below the threshold | below the threshold | 3.74 | below the threshold | below the threshold | below the threshold | below the threshold | below the threshold | 3.79 | below the threshold | below the threshold | below the threshold | below the threshold | below the threshold | 3.94 | below the threshold | below the threshold | 4.14 | pKd (PDLIM1, O00151): below the threshold; pKd (SNTA1, Q13424): below the threshold; pKd (SCRIB_1, Q14160): below the threshold; pKd (CASK, O14936): below the threshold; pKd (GORASP2, Q9H8Y8): below the threshold; pKd (GOPC, Q9HD26): below the threshold
SNAGNTATKA [NOSTRIN, Q8IVI9] | below the threshold | 3.5 | below the threshold | below the threshold | 3.74 | below the threshold | below the threshold | below the threshold | below the threshold | below the threshold | below the threshold | below the threshold | below the threshold | below the threshold | below the threshold | below the threshold | 4.11 | below the threshold | below the threshold | 4.25 | pKd (PDLIM1, O00151): below the threshold; pKd (SNTA1, Q13424): below the threshold; pKd (SCRIB_1, Q14160): below the threshold; pKd (CASK, O14936): below the threshold; pKd (GORASP2, Q9H8Y8): below the threshold; pKd (GOPC, Q9HD26): below the threshold
QGPVETESVV [SLC45A4, Q5BKX6] | 4.95 | below the threshold | below the threshold | 3.97 | below the threshold | 4.34 | below the threshold | below the threshold | 4.19 | below the threshold | 4.01 | below the threshold | 3.85 | 3.66 | below the threshold | 3.81 | below the threshold | 3.7 | 4.75 | 4.47 | pKd (PDLIM1, O00151): below the threshold; pKd (SNTA1, Q13424): 4.93; pKd (SCRIB_1, Q14160): 3.72; pKd (CASK, O14936): below the threshold; pKd (GORASP2, Q9H8Y8): 3.53; pKd (GOPC, Q9HD26): 3.54

Now from value to binder, other results behind:

pKd (IL16_1, Q14005) | pKd (DLG4_3, P78352) | pKd (LIMK2, P53671) | pKd (HTRA4, P83105) | pKd (LIN7B, Q9HAP6) | pKd (SNTG2, Q9NY99) | pKd (RAPGEF6, Q8TEU7) | pKd (IL16_4, Q14005) | pKd (FRMPD2_2, Q68DX3) | pKd (GRIP2_5, Q9C0E4) | pKd (NHERF3_1, Q5T2W1) | pKd (DLG5_1, Q8TDM6) | pKd (NOS1, P29475) | pKd (DFNB31_1, Q9P202) | pKd (MPDZ_10, O75970) | pKd (PARD3_3, Q8TEW0) | pKd (TIAM2, Q8IVF5) | pKd (Inadl_8, Q8NI35) | pKd (SNTG1, Q9NSN8) | pKd (DLG3_2, Q92796) | Binder | other results
below the threshold | 4.26 | below the threshold | 4.26 | below the threshold | 3.66 | below the threshold | below the threshold | below the threshold | below the threshold | below the threshold | below the threshold | below the threshold | 3.56 | below the threshold | below the threshold | below the threshold | 4.09 | below the threshold | 5.12 | SGSLKLMTTV [DACT1, Q9NYF0] | pKd (PDLIM1, O00151): below the threshold; pKd (SNTA1, Q13424): 3.49; pKd (SCRIB_1, Q14160): 3.98; pKd (CASK, O14936): below the threshold; pKd (GORASP2, Q9H8Y8): 4.32; pKd (GOPC, Q9HD26): 3.95
below the threshold | 4.59 | below the threshold | 3.96 | below the threshold | 4.18 | below the threshold | below the threshold | below the threshold | below the threshold | below the threshold | below the threshold | 4.2 | 3.52 | 4.4 | below the threshold | below the threshold | 5.64 | below the threshold | 4.13 | TKGPRGPTRV [SAPCD1, Q5SSQ6] | pKd (PDLIM1, O00151): below the threshold; pKd (SNTA1, Q13424): 4.39; pKd (SCRIB_1, Q14160): 3.7; pKd (CASK, O14936): below the threshold; pKd (GORASP2, Q9H8Y8): 3.96; pKd (GOPC, Q9HD26): 4.19
below the threshold | below the threshold | below the threshold | below the threshold | below the threshold | 4.15 | below the threshold | below the threshold | below the threshold | below the threshold | 4.68 | below the threshold | 3.53 | 4.59 | below the threshold | 4.35 | 3.79 | below the threshold | 3.9 | 4.43 | ETQVTAETVI [TMEM225B, P0DP42] | pKd (PDLIM1, O00151): below the threshold; pKd (SNTA1, Q13424): 4.68; pKd (SCRIB_1, Q14160): 4.24; pKd (CASK, O14936): below the threshold; pKd (GORASP2, Q9H8Y8): 3.57; pKd (GOPC, Q9HD26): below the threshold
